Entries after “also recorded” stand apart in the source; their conditions may differ.
Columns and labels:
[1] = tested on: NIS polypeptide-mediated uptake in stomach; assay: NIS imaging of a mouse fed oral CT contrast agent by gavage; assay type: in vivo; settings: mouse with NIS transduced liver, then imaged
From the text: In the following example, ingestion of barium sulfate was used to enable and enhance discrimination of NIS expression in the liver.

NIS = biological target: T1, NIS (Homo sapiens, UniProt Q92911); assay: iodide mediated quenching of YFP-H148Q/I152L fluorescence; assay type: cell-based; settings: 5 mM KClO4; quenching mediated by 200 mM NaI; FIG. 3
T1 construct: expressed in transfected cells; host or cells: cells transduced with the lentiviral vector
T1 sequence (Q92911 1-643): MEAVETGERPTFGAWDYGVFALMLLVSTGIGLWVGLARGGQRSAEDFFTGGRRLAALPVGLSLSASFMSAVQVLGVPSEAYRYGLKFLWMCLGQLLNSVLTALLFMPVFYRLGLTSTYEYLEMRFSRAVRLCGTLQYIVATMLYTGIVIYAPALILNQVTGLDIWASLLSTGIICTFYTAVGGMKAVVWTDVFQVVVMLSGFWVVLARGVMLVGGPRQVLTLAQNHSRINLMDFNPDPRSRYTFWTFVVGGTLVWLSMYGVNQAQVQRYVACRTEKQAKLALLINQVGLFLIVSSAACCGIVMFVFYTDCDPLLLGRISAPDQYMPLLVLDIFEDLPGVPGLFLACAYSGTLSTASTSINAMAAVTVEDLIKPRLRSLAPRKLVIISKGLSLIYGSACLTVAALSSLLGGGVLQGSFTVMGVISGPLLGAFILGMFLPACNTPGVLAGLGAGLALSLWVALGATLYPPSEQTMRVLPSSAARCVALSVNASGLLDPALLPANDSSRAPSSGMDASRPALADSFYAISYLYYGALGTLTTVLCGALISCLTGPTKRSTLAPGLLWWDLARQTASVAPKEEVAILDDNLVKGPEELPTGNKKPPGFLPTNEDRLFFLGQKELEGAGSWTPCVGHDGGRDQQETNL
Procedure: 72 hours post infection, the cells are subjected to two color flow cytometry to determine the percentage of cells that express YFP-H148Q/I152L and are tagged with anti-HA antibody conjugated to Alexa Fluor 647. To determine the percentage hNIS variants that can transport iodide into the cell, infected cells are treated with 200 μM NaI. The quenching of YFP-H148Q/I152L fluorescence (output for intracellular iodide uptake) is analyzed by flow cytometry.
Five million cells are infected at a moi of 1 with the lentiviral library transducing HA-hNIS variants. On the third day post infection, the cells are expanded to increase the number of cells expressing each unique NIS variant to limit the potential of it being lost during the selection procedure. On day 5, infected cells that fluoresce brightly are selected for by fluorescence-activated cell sorting (FACS) and collected in HBSS/HEPES buffer Immediately thereafter, these cells are incubated for 5 minutes with KClO4 at a concentration that inhibits iodide transport by non-mutated NIS. Then, NaI is added to the cells to a finale concentration of […], and the cells are incubated for 10 minutes at 37° C. Cells whose fluorescence is quenched in the presence of KClO4 are selected for by flow sorting. […]

NIS expressing cells = settings: less efficiently than iodide; cited from earlier work
[2] = tested on: NIS expressing organs (thyroid and stomach) and BXPC-3-hNIS tumor; assay: SPECT/CT dual isotope imaging of nude mice with BXPC-3-hNIS tumors; settings: four hours after i.p. 250 μCi of each isotope
Procedure: FIG. 6. SPECT/CT dual isotope imaging of nude mice implanted with SQ BXPX-3-hNIS tumors. Animals were injected i.p with 250 μCi ^125I and 250 μCi ^99mTc and imaged four hours later. Images were processed using Vivo Quant software. The scale was adjusted manually to get minimal yellow in the tissues.
The stomach and thyroid signals were subtract from the SPECT dataset (FIG. 5). In this experiment, nude female mice (5-week of age) were injected with 3×10^6 BXPC-3-hNIS cells. When tumors reached a diameter of 1 cm, mice were injected I.P. with ^125I sodium iodide (250 μCi) and/or ^99mTc-pertechneate (250 μCi). Four hours post isotope administration, SPECT/CT data were acquired with U-SPECT-II (MiLabs). The SPECT emission data were collected in dual-energy windows to separate the gamma emision energy counts from ^99mTc (140 keV) and ^125I (35 keV). […] Radioiodide thyroid signal subtraction was performed by normalizing the ^125I SPECT data to thyroid tissue on the ^99mTc SPECT data using the image arithmetic tools available in PMOD image fusion software. This was performed in three steps by (1) calculating the normalization factor (i.e., the inverse ratio between the maximum voxel value corresponding to the thyroid tissue on the ^125I SPECT and the maximum voxel value corresponding to the thyroid tissue on the ^99mTc SPECT data set), (2) multiplying each voxel in the ^125I SPECT dataset by this normalization factor, and (3) subtracting the normalized ^125I SPECT dataset from ^99mTc SPECT data set to generate a thyroid subtraction SPECT dataset (FIG. 5C). Similarly, ^99mTc stomach signal subtraction was performed by (1) calculating the normalization factor which in this case is the inverse ratio of the maximum voxel value corresponding to the stomach tissue on the ^99mTc SPECT to the maximum voxel value corresponding to the stomach tissue in the ^125I SPECT data set, (2) multiplying each voxel in the ^99mTc SPECT dataset by this normalization factor, and (3) subtracting the normalized ^99mTc SPECT dataset from ^125I SPECT data set to generate a stomach subtraction SPECT dataset (FIG. 5B).

Mel624 cells = assay: radiotracer uptake assay in Mel624 cells stably expressing NIS polypeptides; assay type: cell-based, human; settings: for uptake of pertechnetate (Technetium-99m) / uptake of radioiodide (Iodine-125): Mel624 cells stably expressing the NIS polypeptide, 37° C. for 1 hour, +/−300 μM KClO4, gamma counter
Procedure: Mel624 cells stably expressing a wild-type human NIS polypeptide (Mel-NIS) or one of two mutant NIS polypeptides (Mel-NIS-93E or Mel-NIS-93Q) were plated in 96-well plates at a density that would lead them to confluency on the day of the uptake assay. 1× Hank's balanced salt solution with calcium, magnesium (HBSS) (Cellgro) and 1 mM HEPES was adjusted to pH 7.3 using KOH (HBBS-HEPES) on the day of the assay. Culture medium was removed from the cells, and 150 μL of HBSS-HEPES+/−300 μM KClO4 was added to the wells. The cells were incubated for 10 minutes at room temperature prior to the addition of radiotracer. Radiotracers, ^125I and ^99mTc, were diluted in HBSS-HEPES to about 70,000 to 100,000 CPM/25 μL (CPM, counts per minute). 25 μL of radiotracer was added to the cells in HBSS-HEPES+/−KClO4, and the cells were incubated at 37° C. for 1 hour. The cells were then washed twice with cold HBSS-HEPES buffer and lysed to release the intracellular radiotracer by adding 200 μL 1M NaOH. Lysates were transferred to strip tubes and quantified using a gamma counter.

[3] = tested on: BxPC3 cells (human pancreatic tumor cells); assay: 123I/99mTc subtraction SPECT of BxPC3 tumors expressing NIS or NIS-93E in athymic mice; assay type: in vivo; settings: subcutaneous BxPC3 tumors; four hours after i.p. 123I and 99mTcO4
Procedure: Image subtraction is used to discriminate a tumor that concentrates only one of two NIS isotopes from organs that concentrate both isotopes (e.g., thyroid gland, stomach, and salivary glands). BxPC3 cells (human pancreatic tumor cells) stably expressing either wild-type human NIS polypeptides or human mutant NIS-93E polypeptides are implanted subcutaneously in the flanks of athymic mice. Once tumors grow to a diameter of 5-8 mm, ^123I/^99mTc subtraction SPECT is performed using a dual-detector SPECT camera. Four hours after the intraperitoneal administration of 250 μCi ^123I sodium iodide and 250 μCi ^99mTcO4, SPECT/CT data are acquired. The SPECT emission data are collected in dual-energy windows to separate the ^99mTc and ^123I counts. The ^99mTc window is centered at 140 keV, and the ^123I window is placed with a 4% offset above 159 keV to minimize the spillover of the ^99mTc photopeak into the much less intense ^123I photopeak. SPECT reconstruction is performed for each of the two acquisition windows. ^123I SPECT voxel intensities on thyroid tissue are normalized to the corresponding ^99mTc SPECT data, and in this way a normalization factor is determined Each voxel in the ^123I SPECT dataset is then multiplied by this normalization factor, and the normalized ^123I SPECT data is subtracted from the ^99mTc SPECT data to create a subtraction SPECT dataset. […]

O=S(=O)([O-])[O-].[Ba+2] [barium sulfate]
isotope signals from the stomach [1]: reduced isotope signals from the stomach | isotope signals from the stomach ([1]; listed as oral contrast agent): significant reduction of the stomach signal

[K+].[O-][Cl+3]([O-])([O-])[O-] [perchlorate, KClO4]
effect on iodide mediated quenching of YFP-H148Q/I152L (NIS): inhibition | efficiency of concentration in NIS expressing cells compared to iodide anions (NIS expressing cells): 10 fold

[125I-].[Na+] [^125I, ^125I sodium iodide]
accumulation in thyroid [2]: preferentially accumulates | accumulation in tumor (BXPC-3-hNIS) [2]: does not discriminate between the two isotopes; also recorded: accumulate both isotopes to similar concentrations

[O]=[99Tc](=[O])(=[O])[O-] [^99mTc, ^99mTc-pertechneate]
accumulation in stomach [2]: preferentially accumulates | accumulation in tumor (BXPC-3-hNIS) [2]: does not discriminate between the two isotopes; also recorded: accumulate both isotopes to similar concentrations

B1: NIS-93E: mutant human sodium iodide symporter polypeptide, amino acid sequence SEQ ID NO:1 (FIG. 4) (protein, listed as Homo sapiens)
chain: MEAVETGERPTFGAWDYGVFALMLLVSTGIGLWVGLARGGQRSAEDFFTGGRRLAALPVGLSLSASFMSAVQVLGVPSEAYRYGLKFLWMCLEQLLNSVLTALLFMPVFYRLGLTSTYEYLEMRFSRAVRLCGTLQYIVATMLYTGIVIYAPALILNQVTGLDIWASLLSTGIICTFYTAVGGMKAVVWTDVFQVVVMLSGFWVVLARGVMLVGGPRQVLTLAQNHSRINLMDFNPDPRSRYTFWTFVVGGTLVWLSMYGVNQAQVQRYVACRTEKQAKLALLINQVGLFLIVSSAACCGIVMFVFYTDCDPLLLGRISAPDQYMPLLVLDIFEDLPGVPGLFLACAYSGTLSTASTSINAMAAVTVEDLIKPRLRSLAPRKLVIISKGLSLIYGSACLTVAALSSLLGGGVLQGSFTVMGVISGPLLGAFILGMFLPACNTPGVLAGLGAGLALSLWVALGATLYPPSEQTMRVLPSSAARCVALSVNASGLLDPALLPANDSSRAPSSGMDASRPALADSFYAISYLYYGALGTLTTVLCGALISCLTGPTKRSTLAPGLLWWDLARQTASVAPKEEVAILDDNLVKGPEELPTGNKKPPGFLPTNEDRLFFLGQKELEGAGSWTPCVGHDGGRDQQETNL
iodide versus TcO4 concentrating efficiency (Mel624 cells): concentrate iodide with greater efficiency than TcO4 | concentration of Iodine-125 uptake in tumor cells as compared to non-mutated NIS (NIS WT) (Mel624 cells; FIGS. 1A and 1B): decrease | uptake of pertechnetate (Technetium-99m) (Mel624 cells): not pertechnetate | uptake of radioiodide (Iodine-125) (Mel624 cells): capable of up-taking radioiodide | uptake of pertechnetate (Technetium-99m) (Mel624 cells; listed as G93E): not Technetium-99m | uptake of radioiodide (Iodine-125) (Mel624 cells; listed as G93E): selectively transports Iodine-125 | uptake of pertechnetate (Technetium-99m) (Mel624 cells; listed as NIS-G93E): not Technetium-99m | uptake of radioiodide (Iodine-125) (Mel624 cells; listed as NIS-G93E): transport selectively Iodine-125 | isotope concentration by tumors expressing the polypeptide, subtraction SPECT [3]: concentrate only iodide and not pertechnetate

B2: wild-type human NIS polypeptide: wild-type human sodium iodide symporter polypeptide (protein, UniProt Q92911 1-643, looked up)
Sodium/iodide cotransporter: MEAVETGERPTFGAWDYGVFALMLLVSTGIGLWVGLARGGQRSAEDFFTGGRRLAALPVGLSLSASFMSAVQVLGVPSEAYRYGLKFLWMCLGQLLNSVLTALLFMPVFYRLGLTSTYEYLEMRFSRAVRLCGTLQYIVATMLYTGIVIYAPALILNQVTGLDIWASLLSTGIICTFYTAVGGMKAVVWTDVFQVVVMLSGFWVVLARGVMLVGGPRQVLTLAQNHSRINLMDFNPDPRSRYTFWTFVVGGTLVWLSMYGVNQAQVQRYVACRTEKQAKLALLINQVGLFLIVSSAACCGIVMFVFYTDCDPLLLGRISAPDQYMPLLVLDIFEDLPGVPGLFLACAYSGTLSTASTSINAMAAVTVEDLIKPRLRSLAPRKLVIISKGLSLIYGSACLTVAALSSLLGGGVLQGSFTVMGVISGPLLGAFILGMFLPACNTPGVLAGLGAGLALSLWVALGATLYPPSEQTMRVLPSSAARCVALSVNASGLLDPALLPANDSSRAPSSGMDASRPALADSFYAISYLYYGALGTLTTVLCGALISCLTGPTKRSTLAPGLLWWDLARQTASVAPKEEVAILDDNLVKGPEELPTGNKKPPGFLPTNEDRLFFLGQKELEGAGSWTPCVGHDGGRDQQETNL
uptake of pertechnetate (Technetium-99m) (Mel624 cells): Substantial uptake | uptake of radioiodide (Iodine-125) (Mel624 cells): Substantial uptake

Source: patent US20140271456A1, “RADIOTRACER IMAGING USING SODIUM IODIDE SYMPORTER POLYPEPTIDES” (Mayo Foundation for Medical Education and Research, priority 2013, published 2014)
